Here are results for 1 molecule from PMC8534003 (Cancers, 2021).

Where no end group is shown, it is not given here. The star is where a group is joined. Biotin = O=C1N[C@H]2[C@H](CS[C@H]2CCCCC(=O)*)N1

As a reminder, the Kd is the concentration at which binding is half-saturated.

For the experiment, the target named is T1, human recombinant FGF-2 (human, UniProt P09038 143-288).
T1 construct: basic fibroblast growth factor (FGF-2), human recombinant; also called basic fibroblast growth factor; source: bought: R&D Systems
Kind of experiment: grating-coupled interferometry; Creoptix WAVEdelta, 4PCP-STA chip; biotinylated CXCL9(74-103) captured on streptavidin; FGF-2 as analyte 4.53 nM-1.10 µM in duplicate; 25 °C; PBS with 30 mM NaCl, 15 mM L-arginine, 0.015% Tween 20, 0.05 mg/mL BSA, pH 7.4; 1:1 binding model with bulk correction. Particulars: both partners purified.

T1 sequence (P09038 143-288): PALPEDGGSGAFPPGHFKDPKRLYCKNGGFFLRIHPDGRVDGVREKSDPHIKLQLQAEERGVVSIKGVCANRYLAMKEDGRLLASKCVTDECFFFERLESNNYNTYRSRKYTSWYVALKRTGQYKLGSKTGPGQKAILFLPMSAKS

B1: biotinylated CXCL9(74-103) (peptide)
peptide: Biotin-KKKQKNGKKHQKKKVLKVRKSQRSRQKKTT
notes: Site-specifically biotinylated at the NH2-terminus with biotin-p-nitrophenyl ester; source: synthetic peptide (Fmoc solid-phase synthesis)
As to B1, the Kd stood at 100 nM.
